Measured values as given in the nanobody polyreactivity screen of Harvey et al. (2022).

Test: yeast display, Sf9 membrane polyspecificity reagent, FACS + sequencing; frameworks hold sequencing errors
Outline: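 Galactose induction of a Saccharomyces cerevisiae BJ5465 synthetic nanobody display library ran 36–48 hours. The cells were then stained for 1 hour at 4 °C with 10% biotinylated, detergent-solubilized Sf9 membrane reagent, pulled down on streptavidin microbeads and FACS-sorted into low and high (top ~1%) gates on expression and reagent-binding fluorescence. Labels for polyreactivity follow the gate of origin.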

Row | Sequence | polyreactivity (PSR sort gate)
1 | QVQLVESGGGLVQAGGSLRLSCAASGRTLRWYTMGGYRQAPGEERELVAAISSSGGSTYYADSVKGRFTISRDNAKNTVYLQMNSLKPEDTAVYYCARDRRLREYDYWGQGTQVTVSS | low polyreactivity
2 | QVQLVESGGGLVQAGGSLRLSCAASGRTLRYYAMGRYIQAPGKERELVAIITSTGSTYYADSVKGRFTISRDNAKNTVYLQMNSLKPEDTAVYYCNRVISVSLDYLGENYWGQGTQVTVSS | high polyreactivity
3 | QVQLVESGGGLVQAGGSLRLSCAASGRTLRYYAMGWYRQAPGKERELVAAITKSGGSTYYADSVKGRFTISRDNAKNTVYLQMNSLKPEDTAVYYCNKVTYSRAQYIGGDGYYWGLGTQVTVSS | high polyreactivity
4 | QVQLVESGGGLVQAGGSLRLSCAASGRTLSANAMGWYRQAPGKERELVATNSTRGGRTYYADSVKGRFTISRDNAKNTVYLQMNSLKPEDTAVYYCAVTIRAKYTLKEDYWGQGTQVTVSS | low polyreactivity
5 | QVQLVESGGGLVQAGGSLRLSCAASGRTLSGNAMGWYRPAPGKERELVATITSDGGDTYYADSVKGRFTISRDNPKNTVYLQMNILKPEDTAVYYCNADYAGPKYVGYTFRSFTMDYWGQGTQVTVSS | low polyreactivity
6 | QVQLVESGGGLVQAGGSLRLSCAASGRTLSGYVMGWYRQAPGKERELVATISNGGSTYYADSVKGRFTISRDNAKNTVYLQMNSLKPEDTAVYYCNRYWYRKHSTDPPVRYRPVGYWGQGTQVTVSS | high polyreactivity
7 | QVQLVESGGGLVQAGGSLRLSCAASGRTLSLYAMGWYRQAPGKEMELVANISNSGGSTDYADSVKGRFTISRDNAKNTVYLQMNSLKPEDTAVYYCAADANSWFTSYQVYGSEFDYWGQGTQVTVSS | low polyreactivity
8 | QVQLVESGGGLVQAGGSLRLSCAASGRTLSVYAMGWYRQAPGKERELLAAITIRGGRTYYADSVKGRFTISRDNAKNTVYLQMNSLKPEDTAVYYCAAPPYVKMDYWGQGTQVTVSS | high polyreactivity
9 | QVQLVESGGGLVQAGGSLRLSCAASGRTLSWYAMGWYRQAPGKEREFVAAITSSGASTYYADSVKGRFTISRDNAKNTVYLQMNSLKPEDTAVYYCAAKMRGYPRRRYDYCGQGTQVTVSS | high polyreactivity
10 | QVQLVESGGGLVQAGGSLRLSCAASGRTLSYYAMGWYRQAPGKEREFVAAINWSGGSTYYADSVKGRFTISRDNAKNTVYLQMNSLKPEDTAVYYCAAYRPYSSSEGDYWGQGTQVTVSS | high polyreactivity
11 | QVQLVESGGGLVQAGGSLRLSCAASGRTLVINVMGWYRQAPGKERELVAAISFRSGNTYYADSVKGRFTISRDNAKNTVYLQMNSLKPEDTAVYYCAAYTYRTSTTSSYYYWGQGTQVTVSS | high polyreactivity
12 | QVQLVESGGGLVQAGGSLRLSCAASGRTLYGYAMGWYRQAPGKERELVARITGRDGSTDYADSVKGRFTISRDNAKNTVYLQMNSLKPEDTAVYYCNARVRFHWYRSDYWGQGTQVTVSS | high polyreactivity
13 | QVQLVESGGGLVQAGGSLRLSCAASGRTLYIYAMGWYREAPGKERELVAAITNGGTTYADSVKGRFTISRDNAKNTVYLQINSLKPEDTAVYYCNADLRVSRITQYEYWGQGTQVTVSS | low polyreactivity
14 | QVQLVESGGGLVQAGGSLRLSCAASGRTLYKYAMGWYRQAPGKERELVAAISRNGGSTYYADSVKGRFTISRDNAKNTVYLQMNSLKPEDTAVYYCNKRWGYQYLWVADYDYWGQGTQVTVSS | high polyreactivity
15 | QVQLVESGGGLVQAGGSLRLSCAASGRTLYLNAMRWNRQPQRKERELVAISSGGSTYYADSVKGRFTISRDNAKNTVYLQMNSLKPEDTAVYYCNADEHYHFGYVFWYAYDYWGQGTQVTVSS | low polyreactivity
16 | QVQLVESGGGLVQAGGSLRLSCAASGRTLYTNAMGWYRQAPGKERELVAAITSGASTNYADSVKGRFTISRDNAKNSVYLQMNSLKPEDTSVYYCASRTYHLWNARRYDYWGQGTQVTVSS | low polyreactivity
17 | QVQLVESGGGLVQAGGSLRLSCAASGRTLYTNAMGWYRQPPGKEREFVASISGSGGSTYYADSVKGRFTISRDNAKNTVDLQMNRLKQEDTAVYYCAADPAQTVEFGKYDYWGQGTQVTVSS | low polyreactivity
18 | QVQLVESGGGLVQAGGSLRLSCAASGRTMAVYAMGWDRQAPGKEREVVAAISWSGGTTYYADSVKGRFTISRDNAKNTVYLQMNSLKAEDTAVYYCAADSYTEVDYWGQGTQVTVSS | low polyreactivity
19 | QVQLVESGGGLVQAGGSLRLSCAASGRTRGVNAMGWYSQAPGKERELVAAITRRGGSTSYADSVKGRFTISRDNEKNTVYLHMNSLKPEDTAVYYCAAGVIREKYYIWSDYEYDYWGQGTQVTVSS | low polyreactivity
20 | QVQLVESGGGLVQAGGSLRLSCAASGRTSDGYARGWYRQAPGKERELVAGITEGGGDTYYADSVKGRFTISRDNAKNTVYLQMNSLKPEDTAVYYCNAVEGSRLPYDYWGQGTQVTVSS | low polyreactivity
21 | QVQLVESGGGLVQAGGSLRLSCAASGRTSGNYAKGWNRQAPGKERELVAAIRYSGSSTFYAESVKGRFTISRDSAKNSVYLQMNSLKPEDTGVYYCARDIRRKGFRYDYWGQGTQVTVSS | high polyreactivity
22 | QVQLVESGGGLVQAGGSLRLSCAASGRTSLAYAMGWYRKATGKERELVAGITSGGNTNYADSVKGRFTISCDNAKNSVYLQMNRLKPEDTAVYYCNKKKRWQWYSESVLDELGFYSWGQGTQVTVSS | low polyreactivity

Row | Sequence | polyreactivity (PSR sort gate)
23 | QVQLVESGGGLVQAGGSLRLSCAASGRTSLAYAMGWYRQAPGKERELVAAISRTGSTYYADSVKGRFTISRDNAKNTVYLQMNSLKPEDTAVYYCNAKRRPYSVRSDYWGQGTQVTVSS | high polyreactivity
24 | QVQLVESGGGLVQAGGSLRLSCAASGRTSLRNAMGWYRQAPGKEWELVATISQSGGRTHYADSVKGRFTISRENAKNTVYLQMNSLKPEDTAVYYCGAVARFSQYLYNYWGQGTQVTVSS | low polyreactivity
25 | QVQLVESGGGLVQAGGSLRLSCAASGRTSLRYAMGWYRLAPGKDRELVAAIRYGGGSTRYADSVKGRFTISRDNAKNTVYLQMKSLKPEDTAVSYCAARYFPRIQYGRKGYDYWGQGTQVTVSA | low polyreactivity
26 | QVQLVESGGGLVQAGGSLRLSCAASGRTSNFNAMGWYRQATGKERELVAAINSDGSTYYADSVKGRFTISRDNAKNTVYLQMNSLKPEDTAVDYCAVRKRPHGYLAFGYWGQGTQVTVSS | low polyreactivity
27 | QVQLVESGGGLVQAGGSLRLSCAASGRTSNGYAMGWYRQAPGKERELVAAYADSVKGRFTISRDNAKNTVYLQMNSLKPEDTAVYYCNADYYPVSRVGYVYWAYYYWGQGTQVTVSS | low polyreactivity
28 | QVQLVESGGGLVQAGGSLRLSCAASGRTSPYYTMGWYRQAPGKERELVAASGSRTDYADSVKGRFTISRDNAKNTVYLQMNSLKPEDTAVYYCNAYRYRQSSSDKYGYWGQGTQVTVSS | low polyreactivity
29 | QVQLVESGGGLVQAGGSLRLSCAASGRTSRNNVMGSYRQAPGKERELVAAITKRTDRTYYADSVKGRFTISRDNAKNTVYLQMNSLKPEDTAVYYCAADLSLSTGGRAFPTYGYWGQGTQVTVSS | high polyreactivity
30 | QVQLVESGGGLVQAGGSLRLSCAASGRTSRRNAMGWYRQAPGKERELVAAISGSGGRTNSADSVKGRFTISRDNAQNTVYLQMNSLKPEDTAVYYCNVLTRYYLGYDYWGQGTQVTVSS | high polyreactivity
31 | QVQLVESGGGLVQAGGSLRLSCAASGRTSRVYAMGWYRQAPGKERELVAAITWRGGNTYYADSVKGRFTISRDNAKNTVYLQMNSLKPEDTAVYYCAADKYTHKPHGDYWGQGTQVTVSS | high polyreactivity
32 | QVQLVESGGGLVQAGGSLRLSCAASGRTSSIYTMGWYRQAPGKERELVAAIRGRGGNTYYADSVKGRFTISRDYAKNTVYLLMNSLKPEDTAVYYCNAKPQGVGLYRYEYWGQGTQVTVSS | high polyreactivity
33 | QVQLVESGGGLVQAGGSLRLSCAASGRTSVGYVMGWYRQAPGKERELVASITSGGSTYYADSVKGRFTISRDNAKNTVYLQMNSLKPEDTAVYYCAAQLKSHRTYGHDYWGQGTQVTVSS | low polyreactivity
34 | QVQLVESGGGLVQAGGSLRLSCAASGRTSVIYAMGWYRQAPGKERELVASIRRGGSTSYADSVKGRFTISRDNAKNTVYLQMNSLIPEDTAVYYCAATLVRRARSGPMGYWGQGTQVTVSS | high polyreactivity
35 | QVQLVESGGGLVQAGGSLRLSCAASGRTSYVYAMGWYRQAPGKERELVAAITSSGGSTYYADSVKGRFTISRDNAKNTVYLQMNSLKPEDTAVYYCAAETYPVWGVAFYYWGQGTQVTVSS | high polyreactivity
36 | QVQLVESGGGLVQAGGSLRLSCAASGRTSYYYAMGWSRQAPGKERELVAAISRSGGRTYYADSVKGRFTISRDNAKNTVYLQMNSLKPEDTAVYYCAADPRSYDTGRMDYWGQGTQVTVSS | high polyreactivity
37 | QVQLVESGGGLVQAGGSLRLSCAASGRTVAPYAMGWYRPAPGKERELVAGITYRTGNTYYADSVKGRFTISRDNAKNTVYLQMNSLKPEDTAVYYCAAYSGYYRPRYNFWGQGTQVNVSS | high polyreactivity
38 | QVQLVESGGGLVQAGGSLRLSCAASGRTVGYNAMGWYRQAPGKERELVAAISRSGDSTYYADSVKGRFTISRDNAKNTVYLQMNSLKPEDTAVYYCATRYVTTGYDYWGQGTQVTVSS | low polyreactivity
39 | QVQLVESGGGLVQAGGSLRLSCAASGRTVKPYAMGWYRQAPGKERELVAAISSGVSTHYADSVKGRFTISRDNAKNSVYLQMNSLKPEDTAVYYCDADDWVNYWFDYWGQGTQVTVSS | low polyreactivity
40 | QVQLVESGGGLVQAGGSLRLSCAASGRTWFYAMGWYRQAPGKERELVAAISGSSGSTYYADSVKGRFTISRDNAKNTVYLQMNSLKPEDTAVYYCAADFWRFYYEYDYWGQGTQVTVSS | low polyreactivity
41 | QVQLVESGGGLVQAGGSLRLSCAASGRTYAAYAMGWYRQAPGKERELVAAISIGGSTNYADSVKGRFTISRDNAKNTVYLLMNSLKPEDTAVYYCAAGTWAVSKYLEWLEFYYWGKGTQVTVSS | high polyreactivity
42 | QVQLVESGGGLVQAGGSLRLSCAASGRTYFYNTMGWYRQAPGKESELVARITRGGSTYYADSVKGRFTISRDNAKNTVYLQMPSLKPEDTAFYYCAAGYWRGYFLYGFDYWGQGTQVTVSS | high polyreactivity
43 | QVQLVESGGGLVQAGGSLRLSCAASGRTYHAYAMGWYRQAPGKGRELVAAITRTGTTHYADSVKGRFTISRDNAKNTVYLQMNSLKPEETAVYYCNKATQFYQWGASPYYPRRDYWGQGTQVTVSS | low polyreactivity
